In patent publication US20200283537A1 (published 2020) one finds Kd data, which are given here for six molecules.

For experiment [1], the target named is T1, Recombinant FOLR1 (rFOLR1), extracellular domain of folate receptor alpha-1 fused to IgG4-Fc. Nature of the experiment: ELISA. On the technique in general: In an ELISA, binding on a coated surface is turned into a signal by an enzyme label.
Experiment [2] has as its target T2, Recombinant DR5 (rDR5), extracellular domain of DR5/TRAIL-R2 fused to IgG4-Fc. As to the kind of experiment: ELISA.
For experiment [3], the target named is T1, Recombinant FOLR1 (rFOLR1), …. Nature of the experiment: BLI.
For experiment [4] the target is unchanged. As to the kind of experiment: BLI. This is another data set of the same source. (In general: Biolayer interferometry detects binding as a change in optical thickness at a sensor tip.)
For experiment [5] the target is unchanged. Nature of the experiment: ELISA. The source holds these as a separate data set.
The target in experiment [6] is T2, Recombinant DR5 (rDR5), extracellular …. As to the kind of experiment: BLI.
The target is the same in experiment [7]. Nature of the experiment: BLI. This is another data set of the same source.
Experiment [8] has the same target. As to the kind of experiment: ELISA. This is another data set of the same source.
Experiment [9] has the same target. Nature of the experiment: BLI. This is another data set of the same source.
For experiment [10] the target is unchanged. As to the kind of experiment: BLI. The source holds these as a separate data set.
Experiment [11] shares this target. As to the kind of experiment: ELISA. The source holds these as a separate data set.
The target is the same in experiment [12]. Nature of the experiment: ELISA. This is another data set of the same source.

B1: BaCa-2 (knob/hole single-chain-linked bispecific, monovalent anti-FOLR1 and anti-DR5) (bispecific antibody)
chain 1: not shown
chain 2: SSELTQDPAVSVALGQTVRITCQGDSLRSYYASWYQQKPGQAPVLVIYGKNNRPSGIPDRFSGSSSGNTASLTITGAQAEDEADYYCNSRDSSGNHVVFGGGTKLTVLRTVAAPSVFIFPPSDEQLKSGTASVVCLLNNFYPREAKVQWKVDNALQSGNSQESVTEQDSKDSTYSLSSTLTLSKADYEKHKVYACEVTHQGLSSPVTKSFNRGECGGGGSGGGGSGGGGSGGGGSGGGGSGGGGSGGGGSGGGGSGGGGSGGGGSEVQLVQSGGGVERPGGSLRLSCAASGFTFDDYGMSWVRQAPGKGLEWVSGINWNGGSTGYADSVKGRVTISRDNAKNSLYLQMNSLRAEDTAVYYCAKILGAGRGWYFDLWGKGTTVTVSSASTKGPSVFPLAPSSKSTSGGTAALGCLVKDYFPEPVTVSWNSGALTSGVHTFPAVLQSSGLYSLSSVVTVPSSSLGTQTYICNVNHKPSNTKVDKRVEPKSCDKTHTCPPCPAPELLGGPSVFLFPPKPKDTLMISRTPEVTCVVVDVSHEDPEVKFNWYVDGVEVHNAKTKPREEQYNSTYRVVSVLTVLHQDWLNGKEYKCKVSNKALPAPIEKTISKAKGQPREPQVYTLPPSREEMTKNQVSLTCLVKGFYPSDIAVEWESNGQPENNYKTTPPVLDSDGSFFLTSKLTVDKSRWQQGNVFSCSVMHEALHNRFTQKSLSLSPG
Usually Kd stands for the free concentration of one partner at which half of the binding sites on the other are occupied at equilibrium, for simple one-to-one binding. As for B1, the values for the Kd in [1] and in experiment [2] were 0.0887 nM and 1.08 nM, respectively.

B2: BaCa-3 (dual-variable-domain bispecific, lexatumumab variable domains outer, farletuzumab inner) (bispecific antibody)
heavy: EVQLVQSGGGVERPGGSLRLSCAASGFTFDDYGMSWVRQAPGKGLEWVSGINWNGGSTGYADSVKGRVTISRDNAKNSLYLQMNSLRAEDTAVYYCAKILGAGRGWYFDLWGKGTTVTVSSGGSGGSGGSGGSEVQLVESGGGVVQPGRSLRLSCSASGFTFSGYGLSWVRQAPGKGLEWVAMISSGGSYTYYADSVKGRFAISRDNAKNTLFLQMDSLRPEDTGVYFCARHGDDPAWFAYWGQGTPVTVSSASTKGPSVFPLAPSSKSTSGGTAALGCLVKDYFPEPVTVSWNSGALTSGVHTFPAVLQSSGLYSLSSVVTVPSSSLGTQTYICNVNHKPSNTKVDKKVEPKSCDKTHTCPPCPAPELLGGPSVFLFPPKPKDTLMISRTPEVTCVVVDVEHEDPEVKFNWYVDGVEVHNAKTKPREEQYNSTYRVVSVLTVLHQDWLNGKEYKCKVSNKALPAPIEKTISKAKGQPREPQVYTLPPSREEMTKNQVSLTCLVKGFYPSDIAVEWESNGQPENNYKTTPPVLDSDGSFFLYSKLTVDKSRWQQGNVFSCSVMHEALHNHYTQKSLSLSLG
light: SSELTQDPAVSVALGQTVRITCQGDSLRSYYASWYQQKPGQAPVLVIYGKNNRPSGIPDRFSGSSSGNTASLTITGAQAEDEADYYCNSRDSSGNHVVFGGGTKLTVLGGSGGSGGSGGSDIQLTQSPSSLSASVGDRVTITCSVSSSISSNNLHWYQQKPGKAPKPWIYGTSNLASGVPSRFSGSGSGTDYTFTISSLQPEDIATYYCQQWSSYPYMYTFGQGTKVEIKRTVAAPSVFIFPPSDEQLKSGTASVVCLLNNFYPREAKVQWKVDNALQSGNSQESVTEQDSKDSTYSLSSTLTLSKADYEKHKVYACEVTHQGLSSPVTKSFNRGEC
For B2, the dissociation constant Kd in experiment [1] worked out at 0.392 nM; in experiment [2], 0.538 nM.

B3: Farletuzumab (humanized anti-FOLR1 monoclonal antibody), recombinant human IgG1 (antibody, V domains shown)
VH: EVQLVESGGGVVQPGRSLRLSCSASGFTFSGYGLSWVRQAPGKGLEWVAMISSGGSYTYYADSVKGRFAISRDNAKNTLFLQMDSLRPEDTGVYFCARHGDDPAWFAYWGQGTPVTVSS
VL: DIQLTQSPSSLSASVGDRVTITCSVSSSISSNNLHWYQQKPGKAPKPWIYGTSNLASGVPSRFSGSGSGTDYTFTISSLQPEDIATYYCQQWSSYPYMYTFGQGTKVEIKR
Consider B3, for which the Kd is 15 nM in [3], 15 nM in experiment [4], 0.42 nM in experiment [1] and 0.985 nM in [5].

B4: BaCa-1 (Bispecific-Anchored Cytotoxicity-Activator-1; farletuzumab IgG1 with a lexatumumab scFv at the C-terminus of the heavy chain) (bispecific antibody)
heavy: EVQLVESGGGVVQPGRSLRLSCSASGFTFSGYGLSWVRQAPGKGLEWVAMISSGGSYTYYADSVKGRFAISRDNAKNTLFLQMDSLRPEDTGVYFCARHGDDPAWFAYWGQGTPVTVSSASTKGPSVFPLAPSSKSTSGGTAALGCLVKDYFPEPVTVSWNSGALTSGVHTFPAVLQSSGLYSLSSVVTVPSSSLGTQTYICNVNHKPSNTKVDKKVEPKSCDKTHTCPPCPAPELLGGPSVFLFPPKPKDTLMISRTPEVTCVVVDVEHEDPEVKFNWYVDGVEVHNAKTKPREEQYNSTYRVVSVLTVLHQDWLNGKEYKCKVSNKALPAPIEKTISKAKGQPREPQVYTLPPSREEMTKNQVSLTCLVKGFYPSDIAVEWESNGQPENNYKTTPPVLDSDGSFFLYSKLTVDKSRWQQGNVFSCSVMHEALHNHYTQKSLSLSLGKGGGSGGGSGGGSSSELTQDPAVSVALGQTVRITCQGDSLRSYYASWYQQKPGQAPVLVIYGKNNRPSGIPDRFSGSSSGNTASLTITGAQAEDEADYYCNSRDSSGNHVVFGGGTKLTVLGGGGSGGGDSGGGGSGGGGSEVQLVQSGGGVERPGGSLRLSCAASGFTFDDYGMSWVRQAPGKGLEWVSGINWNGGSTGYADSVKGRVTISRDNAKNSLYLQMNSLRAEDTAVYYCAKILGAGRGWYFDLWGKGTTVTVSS
light: DIQLTQSPSSLSASVGDRVTITCSVSSSISSNNLHWYQQKPGKAPKPWIYGTSNLASGVPSRFSGSGSGTDYTFTISSLQPEDIATYYCQQWSSYPYMYTFGQGTKVEIKRTVAAPSVFIFPPSDEQLKSGTASVVCLLNNFYPREAKVQWKVDNALQSGNSQESVTEQDSKDSTYSLSSTLTLSKADYEKHKVYACEVTHQGLSSPVTKSFNRGEC
For B4, the dissociation constant Kd in [3] amounted to 12 nM; in [6], 3.1 nM; in experiment [4], 12 nM; in [7] it was 3.1 nM; in experiment [1], 0.61 nM; in experiment [2], 0.73 nM. Moreover, the values for the Kd in [5] and in [8] were 1.21 nM and 1.41 nM, respectively.

B5: BaCa antibody with LALA-Fc (L234A-L235A) mutations in the CH2 domain (bispecific antibody)
heavy: EVQLVESGGGVVQPGRSLRLSCSASGFTFSGYGLSWVRQAPGKGLEWVAMISSGGSYTYYADSVKGRFAISRDNAKNTLFLQMDSLRPEDTGVYFCARHGDDPAWFAYWGQGTPVTVSSASTKGPSVFPLAPSSKSTSGGTAALGCLVKDYFPEPVTVSWNSGALTSGVHTFPAVLQSSGLYSLSSVVTVPSSSLGTQTYICNVNHKPSNTKVDKKVEPKSCDKTHTCPPCPAPEAAGGPSVFLFPPKPKDTLMISRTPEVTCVVVDVEHEDPEVKFNWYVDGVEVHNAKTKPREEQYNSTYRVVSVLTVLHQDWLNGKEYKCKVSNKALPAPIEKTISKAKGQPREPQVYTLPPSREEMTKNQVSLTCLVKGFYPSDIAVEWESNGQPENNYKTTPPVLDSDGSFFLYSKLTVDKSRWQQGNVFSCSVMHEALHNHYTQKSLSLSLGKGGGSGGGSGGGSSSELTQDPAVSVALGQTVRITCQGDSLRSYYASWYQQKPGQAPVLVIYGKNNRPSGIPDRFSGSSSGNTASLTITGAQAEDEADYYCNSRDSSGNHVVFGGGTKLTVLGGGGSGGGDSGGGGSGGGGSEVQLVQSGGGVERPGGSLRLSCAASGFTFDDYGMSWVRQAPGKGLEWVSGINWNGGSTGYADSVKGRVTISRDNAKNSLYLQMNSLRAEDTAVYYCAKILGAGRGWYFDLWGKGTTVTVSS
light: DIQLTQSPSSLSASVGDRVTITCSVSSSISSNNLHWYQQKPGKAPKPWIYGTSNLASGVPSRFSGSGSGTDYTFTISSLQPEDIATYYCQQWSSYPYMYTFGQGTKVEIKRTVAAPSVFIFPPSDEQLKSGTASVVCLLNNFYPREAKVQWKVDNALQSGNSQESVTEQDSKDSTYSLSSTLTLSKADYEKHKVYACEVTHQGLSSPVTKSFNRGEC
B5: the Kd was found to be 0.904 nM in experiment [5] and 1.65 nM in experiment [8].

B6: Lexatumumab (anti-TRAIL-R2/DR5 antibody), recombinant human IgG1 (antibody, V domains shown)
VH: EVQLVQSGGGVERPGGSLRLSCAASGFTFDDYGMSWVRQAPGKGLEWVSGINWNGGSTGYADSVKGRVTISRDNAKNSLYLQMNSLRAEDTAVYYCAKILGAGRGWYFDLWGKGTTVTVSS
VL: SSELTQDPAVSVALGQTVRITCQGDSLRSYYASWYQQKPGQAPVLVIYGKNNRPSGIPDRFSGSSSGNTASLTITGAQAEDEADYYCNSRDSSGNHVVFGGGTKLTVLG
With B6, the dissociation constant Kd in experiment [9] was 3.3 nM; in experiment [10] it was 3.3 nM; in experiment [11] it was 1.26 nM; in [12], 0.518 nM.
